36 sequences from the supplement of paper PMC10567573 can be followed below.

± gives the standard deviation.

A short description of the series: protein stability index of a GFP-peptide fusion (GPS, HEK-293T) (PSI 1-6); higher = more stable. As to conditions: c terminus: a fixed tail appended.
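Further: 24-mer peptide tiles fused after GFP, lentivirally expressed, FACS-sorted into six equal bins by GFP/DsRed ratio, decoded by Illumina sequencing, PSI is the read-weighted mean bin number.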

As for MADSASESDTDGAGGNSSSSAAMQ [CCDC6], the protein stability index is, setting by setting: (treatment: DMSO) 5.51 ± 0.08; (treatment: MLN4924 1 uM, 8 h) 5.38 ± 0.32.

For the sequence AALHGLEETKKLANKYLVEDVLLL [KLHL14], the protein stability index reads like this: (treatment: DMSO) 2.42 ± 0.22; (treatment: MLN4924 1 uM, 8 h) 2.55 ± 0.56.

In the case of QPMCEEHEEERINIYCLNCEVPTC [TRIM55], the protein stability index turned out to be 4.43 ± 0.2 (treatment: DMSO) and 4.31 ± 0.22 (treatment: MLN4924 1 uM, 8 h).

The sequence LGLDDFESLKVIGRGAFGEVRLVQ [STK38L] had a protein stability index (treatment: DMSO) of 3.55 ± 0.58 and a protein stability index (treatment: MLN4924 1 uM, 8 h) of 3.38 ± 0.33.

On to HIPSQEVPGTQVGQGGKLWDPSVQ [ZNF263], for which the protein stability index runs as follows: (treatment: DMSO) 4.35 ± 0.12; (treatment: MLN4924 1 uM, 8 h) 4.44 ± 0.24.

Turning to PAPEAAHTTGPTGSAPNSPMALLT [TFE3], the protein stability index runs as follows: (treatment: DMSO) 4.67 ± 0.12; (treatment: MLN4924 1 uM, 8 h) 4.67 ± 0.16.

With RMDKRTLALLVLAHSSDVLENVFS [GOLPH3L], the protein stability index is, setting by setting: (treatment: DMSO) 2.37 ± 0.53; (treatment: MLN4924 1 uM, 8 h) 2.22 ± 0.23.

In the case of FKTIEELRDKIMATTIDNSRVILE [KRT15], the protein stability index is, setting by setting: (treatment: DMSO) 2.54 ± 0.28; (treatment: MLN4924 1 uM, 8 h) 2.65 ± 0.26.

As for TGESSEPEAKVLHTKRLYRAVVEA [SMG5], the protein stability index was 3.65 ± 0.33 (treatment: DMSO) and 3.63 ± 0.24 (treatment: MLN4924 1 uM, 8 h).

Turning to LRQLTAELAEHRCHPVERGIKSKE [PSD2], the protein stability index is 3.99 ± 0.26 (treatment: DMSO) and 4.2 ± 0.043 (treatment: MLN4924 1 uM, 8 h).

For the sequence VHRRGEYNVYSTFQSHEPEFDYLK [PPP2R2B], the protein stability index by setting is: (treatment: DMSO) 2.97 ± 0.11; (treatment: MLN4924 1 uM, 8 h) 2.88 ± 0.17.

On to LPSNPCATTNACEKPIGSCVTNPC [KRT33B], for which the protein stability index is 4.29 ± 0.081 (treatment: DMSO) and 4.41 ± 0.17 (treatment: MLN4924 1 uM, 8 h).

Regarding IRCRHPPPGSHLLYAKMIQKLADL [VDR], the protein stability index is, setting by setting: (treatment: DMSO) 2.37 ± 0.33; (treatment: MLN4924 1 uM, 8 h) 2.23 ± 0.13.

Turning to FLESQGIELNPPEKMALDPYTELR [EFHC1], the protein stability index (treatment: DMSO) came to 3.79 ± 0.41 and the protein stability index (treatment: MLN4924 1 uM, 8 h) stood at 3.89 ± 0.35.

Regarding TLHNAQTQEPIFTFTASFSGKVFP [TRIM15], the protein stability index is, setting by setting: (treatment: DMSO) 2.49 ± 0.23; (treatment: MLN4924 1 uM, 8 h) 2.56 ± 0.3.

Take RICLGKFTFPGMSLDKRQGEGLRI [TPRG1]: the protein stability index is, setting by setting: (treatment: DMSO) 2.12 ± 0.19; (treatment: MLN4924 1 uM, 8 h) 2.08 ± 0.32.

Turning to NEWRRPIIQFVESGDDKNSNYFSM [TRIM29], the protein stability index was 3 ± 0.3 (treatment: DMSO) and 3.12 ± 0.34 (treatment: MLN4924 1 uM, 8 h).

Consider PGGRPEVIYNYVQRPFIRMSWEKE [BTBD10], for which the protein stability index came to 3.06 ± 0.41 (treatment: DMSO) and 3.21 ± 0.43 (treatment: MLN4924 1 uM, 8 h).

Take RGCSVKIWTAHYDPGHCFAESREL [ALG2]: the protein stability index reads like this: (treatment: DMSO) 2.21 ± 0.26; (treatment: MLN4924 1 uM, 8 h) 2.11 ± 0.52.

For the sequence RHFFTSWASCLQYDFDTQYAFVGD [WDFY1], the protein stability index is, setting by setting: (treatment: DMSO) 2.37 ± 0.28; (treatment: MLN4924 1 uM, 8 h) 2.39 ± 0.17.

As for AELLLAARLLGALAARSGAAYGPG [TSPAN10], the protein stability index reads like this: (treatment: DMSO) 2.93 ± 0.069; (treatment: MLN4924 1 uM, 8 h) 2.77 ± 0.73.

For the sequence QLAHMVKEQEETIQRIDENVLGAQ [STX5], the protein stability index stood at 4.81 ± 0.45 (treatment: DMSO) and 4.96 ± 0.21 (treatment: MLN4924 1 uM, 8 h).

As for VILFSSAVYFAEAEEAESHFSSIP [KCNA1], the protein stability index amounted to 2.37 ± 0.5 (treatment: DMSO) and 2.35 ± 0.29 (treatment: MLN4924 1 uM, 8 h).

Regarding LLFNVKSPTDIQDSSIIRTTQDLF [RHOBTB3], the protein stability index by setting is: (treatment: DMSO) 2.37 ± 0.17; (treatment: MLN4924 1 uM, 8 h) 2.35 ± 0.32.

For the sequence MEMAKFRYILPVYGICREPVGLVM [RIPK4], the protein stability index is, setting by setting: (treatment: DMSO) 2.69 ± 0.39; (treatment: MLN4924 1 uM, 8 h) 3.08 ± 0.86.

Consider FQCNQCGASFTQKGNLLRHIKLHS [IKZF1], for which the protein stability index was 4.56 ± 0.16 (treatment: DMSO) and 4.4 ± 0.76 (treatment: MLN4924 1 uM, 8 h).

For the sequence TASDGGDPLRSGTVLVSVTVFDAN [PCDHGA10], the protein stability index came out at 2.31 ± 0.52 (treatment: DMSO) and 2.13 ± 0.091 (treatment: MLN4924 1 uM, 8 h).

As for IRYQSFNNQSDLEKEMQKMNPYKI [PRIM1], the protein stability index runs as follows: (treatment: DMSO) 3.07 ± 0.13; (treatment: MLN4924 1 uM, 8 h) 3.26 ± 0.28.

As to NRLLQEENRTLQVLRAEHRGFQEE [CBY2], the protein stability index (treatment: DMSO) came out at 4.43 ± 0.21 and the protein stability index (treatment: MLN4924 1 uM, 8 h) was found to be 4.46 ± 0.12.

On to QTWKLFSSHMNIDITDDCICDLAR [PPEF2], for which the protein stability index by setting is: (treatment: DMSO) 2.25 ± 0.35; (treatment: MLN4924 1 uM, 8 h) 2.06 ± 0.32.

With KVEFTEEEIKTWGTVFQELNKLYP [TPH1], the protein stability index is, setting by setting: (treatment: DMSO) 2.77 ± 0.24; (treatment: MLN4924 1 uM, 8 h) 2.91 ± 0.34.

Turning to DSLPMDAYTHGCILHPELTVDSMI [GDAP1], the protein stability index (treatment: DMSO) amounted to 3.29 ± 0.26 and the protein stability index (treatment: MLN4924 1 uM, 8 h) came to 3.47 ± 0.11.

Consider ALVCLLSCLLPSSEAKLYGRCELA [SPACA3], for which the protein stability index runs as follows: (treatment: DMSO) 3.18 ± 0.42; (treatment: MLN4924 1 uM, 8 h) 3.04 ± 0.36.

Turning to WLSANPCPHCGDRTFYDPEPILCP [PRAME], the protein stability index was 2.45 ± 0.19 (treatment: DMSO) and 2.69 ± 0.45 (treatment: MLN4924 1 uM, 8 h).

VKQEIAEMRIPALNAYMKSLLSLP [NCF4]: the protein stability index runs as follows: (treatment: DMSO) 2.27 ± 0.34; (treatment: MLN4924 1 uM, 8 h) 2.36 ± 0.28.

For EHGLHTKYIHRMMQIEFIKQGSMN [TRAF3IP2], the protein stability index was determined as 2.3 ± 0.2 (treatment: DMSO) and 2.5 ± 0.26 (treatment: MLN4924 1 uM, 8 h).
